# From patent US5981229
# Molecular target: PlpA-PhoA fusion protein of strain SPRU98 (Streptococcus pneumoniae; E. coli)
substance,measurement,value
DsbA (from UniProt P0AEG4) (enzyme),alkaline phosphatase activity of SPRU98 whole bacteria (activity units per mg of total protein),138
